Target: the molecule itself
Experiment: SEC-MALS

B1: MBP-EBOV NP 1-367 (domain or fragment)
chain: MDSRPQKIWMAPSLTESDMDYHKILTAGLSVQQGIVRQRVIPVYQVNNLEEICQLIIQAFEAGVDFQESADSFLLMLCLHHAYQGDYKLFLESGAVKYLEGHGFRFEVKKRDGVKRLEELLPAVSSGKNIKRTLAAMPEEETTEANAGQFLSFASLFLPKLVVGEKACLEKVQRQIQVHAEQGLIQYPTAWQSVGHMMVIFRLMRTNFLIKFLLIHQGMHMVAGHDANDAVISNSVAQARFSGLLIVKTVLDHILQKTERGVRLHPLARTAKVKNEVNSFKAALSSLAKHGEYAPFARLLNLSGVNNLEHGLFPQLSAIALGVATAHGSTLAGVNVGEQYQQLREAATEAEKQLQQYAESRELDHLG
B1: binds.
